Experimental data from patent US12679878B2, “CRF2 receptor agonists and their use in therapy” (SANOFI, priority 2020, dated 2026).
Starred links: 1 amine or outer side, 2 acyl side, 3 side chain; linkers in the order of their positions; H or OH if unused. Non-standard residues stand in square brackets, D forms with d. Groups on a side chain read outwards from the residue. No end group written: not given here. *: point of attachment. C16 diacid = O=C(O)CCCCCCCCCCCCCCC(=O)*; γGlu = O=C(O)[C@H](CCC(=O)[*:2])N[*:1]; Aib = CC(C)(N)C(=O)O

B1: peptide of SEQ ID NO: 193 (peptide)
peptide: IVLSLD[dV]PIGLK([γGlu-C16 diacid])QILLKQERQKK[Aib]REQAETNKRILERV-NH2
modifications: N-terminus assumed
SMILES: CC[C@H](C)[C@H](N)C(=O)N[C@H](C(=O)N[C@@H](CC(C)C)C(=O)N[C@@H](CO)C(=O)N[C@@H](CC(C)C)C(=O)N[C@@H](CC(=O)O)C(=O)N[C@@H](C(=O)N1CCC[C@H]1C(=O)N[C@H](C(=O)NCC(=O)N[C@@H](CC(C)C)C(=O)N[C@@H](CCCCNC(=O)CC[C@H](NC(=O)CCCCCCCCCCCCCCC(=O)O)C(=O)O)C(=O)N[C@@H](CCC(N)=O)C(=O)N[C@H](C(=O)N[C@@H](CC(C)C)C(=O)N[C@@H](CC(C)C)C(=O)N[C@@H](CCCCN)C(=O)N[C@@H](CCC(N)=O)C(=O)N[C@@H](CCC(=O)O)C(=O)N[C@@H](CCCNC(=N)N)C(=O)N[C@@H](CCC(N)=O)C(=O)N[C@@H](CCCCN)C(=O)N[C@@H](CCCCN)C(=O)NC(C)(C)C(=O)N[C@@H](CCCNC(=N)N)C(=O)N[C@@H](CCC(=O)O)C(=O)N[C@@H](CCC(N)=O)C(=O)N[C@@H](C)C(=O)N[C@@H](CCC(=O)O)C(=O)N[C@H](C(=O)N[C@@H](CC(N)=O)C(=O)N[C@@H](CCCCN)C(=O)N[C@@H](CCCNC(=N)N)C(=O)N[C@H](C(=O)N[C@@H](CC(C)C)C(=O)N[C@@H](CCC(=O)O)C(=O)N[C@@H](CCCNC(=N)N)C(=O)N[C@H](C(N)=O)C(C)C)[C@@H](C)CC)[C@@H](C)O)[C@@H](C)CC)[C@@H](C)CC)C(C)C)C(C)C
B2: peptide of SEQ ID NO: 189 (peptide)
peptide: IVLSLD[dV]PIKLK([γGlu-C16 diacid])QILLKQERQKK[Aib]RQKAEKNKQILAQV-NH2
modifications: N-terminus assumed
SMILES: CC[C@H](C)[C@H](N)C(=O)N[C@H](C(=O)N[C@@H](CC(C)C)C(=O)N[C@@H](CO)C(=O)N[C@@H](CC(C)C)C(=O)N[C@@H](CC(=O)O)C(=O)N[C@@H](C(=O)N1CCC[C@H]1C(=O)N[C@H](C(=O)N[C@@H](CCCCN)C(=O)N[C@@H](CC(C)C)C(=O)N[C@@H](CCCCNC(=O)CC[C@H](NC(=O)CCCCCCCCCCCCCCC(=O)O)C(=O)O)C(=O)N[C@@H](CCC(N)=O)C(=O)N[C@H](C(=O)N[C@@H](CC(C)C)C(=O)N[C@@H](CC(C)C)C(=O)N[C@@H](CCCCN)C(=O)N[C@@H](CCC(N)=O)C(=O)N[C@@H](CCC(=O)O)C(=O)N[C@@H](CCCNC(=N)N)C(=O)N[C@@H](CCC(N)=O)C(=O)N[C@@H](CCCCN)C(=O)N[C@@H](CCCCN)C(=O)NC(C)(C)C(=O)N[C@@H](CCCNC(=N)N)C(=O)N[C@@H](CCC(N)=O)C(=O)N[C@@H](CCCCN)C(=O)N[C@@H](C)C(=O)N[C@@H](CCC(=O)O)C(=O)N[C@@H](CCCCN)C(=O)N[C@@H](CC(N)=O)C(=O)N[C@@H](CCCCN)C(=O)N[C@@H](CCC(N)=O)C(=O)N[C@H](C(=O)N[C@@H](CC(C)C)C(=O)N[C@@H](C)C(=O)N[C@@H](CCC(N)=O)C(=O)N[C@H](C(N)=O)C(C)C)[C@@H](C)CC)[C@@H](C)CC)[C@@H](C)CC)C(C)C)C(C)C
B3: peptide of SEQ ID NO: 196 (peptide)
peptide: IVLSLD[dV]PIGLK([γGlu-C16 diacid])QILLKQERQKK[Aib]REQAEKNKRILERV-NH2
modifications: N-terminus assumed
SMILES: CC[C@H](C)[C@H](N)C(=O)N[C@H](C(=O)N[C@@H](CC(C)C)C(=O)N[C@@H](CO)C(=O)N[C@@H](CC(C)C)C(=O)N[C@@H](CC(=O)O)C(=O)N[C@@H](C(=O)N1CCC[C@H]1C(=O)N[C@H](C(=O)NCC(=O)N[C@@H](CC(C)C)C(=O)N[C@@H](CCCCNC(=O)CC[C@H](NC(=O)CCCCCCCCCCCCCCC(=O)O)C(=O)O)C(=O)N[C@@H](CCC(N)=O)C(=O)N[C@H](C(=O)N[C@@H](CC(C)C)C(=O)N[C@@H](CC(C)C)C(=O)N[C@@H](CCCCN)C(=O)N[C@@H](CCC(N)=O)C(=O)N[C@@H](CCC(=O)O)C(=O)N[C@@H](CCCNC(=N)N)C(=O)N[C@@H](CCC(N)=O)C(=O)N[C@@H](CCCCN)C(=O)N[C@@H](CCCCN)C(=O)NC(C)(C)C(=O)N[C@@H](CCCNC(=N)N)C(=O)N[C@@H](CCC(=O)O)C(=O)N[C@@H](CCC(N)=O)C(=O)N[C@@H](C)C(=O)N[C@@H](CCC(=O)O)C(=O)N[C@@H](CCCCN)C(=O)N[C@@H](CC(N)=O)C(=O)N[C@@H](CCCCN)C(=O)N[C@@H](CCCNC(=N)N)C(=O)N[C@H](C(=O)N[C@@H](CC(C)C)C(=O)N[C@@H](CCC(=O)O)C(=O)N[C@@H](CCCNC(=N)N)C(=O)N[C@H](C(N)=O)C(C)C)[C@@H](C)CC)[C@@H](C)CC)[C@@H](C)CC)C(C)C)C(C)C
B4: peptide of SEQ ID NO: 195 (peptide)
peptide: IVLSLD[dV]PIGLK([γGlu-C16 diacid])QILLKQERQKK[Aib]RQQAETNKRILERV-NH2
modifications: N-terminus assumed
SMILES: CC[C@H](C)[C@H](N)C(=O)N[C@H](C(=O)N[C@@H](CC(C)C)C(=O)N[C@@H](CO)C(=O)N[C@@H](CC(C)C)C(=O)N[C@@H](CC(=O)O)C(=O)N[C@@H](C(=O)N1CCC[C@H]1C(=O)N[C@H](C(=O)NCC(=O)N[C@@H](CC(C)C)C(=O)N[C@@H](CCCCNC(=O)CC[C@H](NC(=O)CCCCCCCCCCCCCCC(=O)O)C(=O)O)C(=O)N[C@@H](CCC(N)=O)C(=O)N[C@H](C(=O)N[C@@H](CC(C)C)C(=O)N[C@@H](CC(C)C)C(=O)N[C@@H](CCCCN)C(=O)N[C@@H](CCC(N)=O)C(=O)N[C@@H](CCC(=O)O)C(=O)N[C@@H](CCCNC(=N)N)C(=O)N[C@@H](CCC(N)=O)C(=O)N[C@@H](CCCCN)C(=O)N[C@@H](CCCCN)C(=O)NC(C)(C)C(=O)N[C@@H](CCCNC(=N)N)C(=O)N[C@@H](CCC(N)=O)C(=O)N[C@@H](CCC(N)=O)C(=O)N[C@@H](C)C(=O)N[C@@H](CCC(=O)O)C(=O)N[C@H](C(=O)N[C@@H](CC(N)=O)C(=O)N[C@@H](CCCCN)C(=O)N[C@@H](CCCNC(=N)N)C(=O)N[C@H](C(=O)N[C@@H](CC(C)C)C(=O)N[C@@H](CCC(=O)O)C(=O)N[C@@H](CCCNC(=N)N)C(=O)N[C@H](C(N)=O)C(C)C)[C@@H](C)CC)[C@@H](C)O)[C@@H](C)CC)[C@@H](C)CC)C(C)C)C(C)C
B5: peptide of SEQ ID NO: 187 (peptide)
peptide: IVLSLD[dV]PIKLK([γGlu-C16 diacid])QILLKQERQK[Aib]QREQAEKNKQILAQV-NH2
modifications: N-terminus assumed
SMILES: CC[C@H](C)[C@H](N)C(=O)N[C@H](C(=O)N[C@@H](CC(C)C)C(=O)N[C@@H](CO)C(=O)N[C@@H](CC(C)C)C(=O)N[C@@H](CC(=O)O)C(=O)N[C@@H](C(=O)N1CCC[C@H]1C(=O)N[C@H](C(=O)N[C@@H](CCCCN)C(=O)N[C@@H](CC(C)C)C(=O)N[C@@H](CCCCNC(=O)CC[C@H](NC(=O)CCCCCCCCCCCCCCC(=O)O)C(=O)O)C(=O)N[C@@H](CCC(N)=O)C(=O)N[C@H](C(=O)N[C@@H](CC(C)C)C(=O)N[C@@H](CC(C)C)C(=O)N[C@@H](CCCCN)C(=O)N[C@@H](CCC(N)=O)C(=O)N[C@@H](CCC(=O)O)C(=O)N[C@@H](CCCNC(=N)N)C(=O)N[C@@H](CCC(N)=O)C(=O)N[C@@H](CCCCN)C(=O)NC(C)(C)C(=O)N[C@@H](CCC(N)=O)C(=O)N[C@@H](CCCNC(=N)N)C(=O)N[C@@H](CCC(=O)O)C(=O)N[C@@H](CCC(N)=O)C(=O)N[C@@H](C)C(=O)N[C@@H](CCC(=O)O)C(=O)N[C@@H](CCCCN)C(=O)N[C@@H](CC(N)=O)C(=O)N[C@@H](CCCCN)C(=O)N[C@@H](CCC(N)=O)C(=O)N[C@H](C(=O)N[C@@H](CC(C)C)C(=O)N[C@@H](C)C(=O)N[C@@H](CCC(N)=O)C(=O)N[C@H](C(N)=O)C(C)C)[C@@H](C)CC)[C@@H](C)CC)[C@@H](C)CC)C(C)C)C(C)C

Target: T1, CRF1R receptor (anti-target) (UniProt P34998 24-415, limits assumed)
T1 sequence (looked up): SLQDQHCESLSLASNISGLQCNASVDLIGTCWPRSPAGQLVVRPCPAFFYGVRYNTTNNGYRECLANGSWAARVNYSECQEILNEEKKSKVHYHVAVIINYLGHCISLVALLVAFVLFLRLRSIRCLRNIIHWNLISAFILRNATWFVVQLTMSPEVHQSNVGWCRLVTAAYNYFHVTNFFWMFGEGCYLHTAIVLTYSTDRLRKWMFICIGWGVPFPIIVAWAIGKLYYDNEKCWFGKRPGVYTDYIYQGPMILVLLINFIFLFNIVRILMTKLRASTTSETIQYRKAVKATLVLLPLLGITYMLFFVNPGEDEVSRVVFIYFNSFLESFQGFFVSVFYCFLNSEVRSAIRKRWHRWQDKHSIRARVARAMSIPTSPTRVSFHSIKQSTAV
Test: cell-based or functional assay

| CRF1/CRF2 ratio (of EC50) | CRF1 EC50 (cAMP, HTRF) | Binder |
| --- | --- | --- |
| > 500 | > 100 nM | B1 |
| > 500 | > 100 nM | B2 |
| > 500 | > 100 nM | B3 |
| > 500 | > 100 nM | B4 |
| > 500 | > 100 nM | B5 |
